Source: patent US20160017016A1 (AstraZeneca / MedImmune, published 2016)
*1 amine or outer side, *2 acyl side, *3 side chain or, on linkers, in order; H or OH if unused. Primed or numbered codes have the meaning given here. Where no end group is shown, it is not given here. Side-chain parts run from the residue outwards. [ ]: non-standard residue; d: D form. The star is where a group is joined. PEG4′ = 4 PEG units (K(PEGxpalm): Lys with x PEG units and palmitoyl at epsilon N, C-terminal (PEG)4); γGlu = O=C(O)[C@H](CCC(=O)[*:2])N[*:1]; Palmitoyl = CCCCCCCCCCCCCCCC(=O)*; Aib = CC(C)(N)C(=O)O; PEG2′ = 2 PEG units

Experiments:
[1] = biological target: human GLP-1 receptor (GLP-1R) (human, UniProt P43220 24-463); assay: cell-based or functional assay
[2] = biological target: human glucagon receptor (GCGR) (human, UniProt P47871 26-477); assay: cell-based or functional assay
human glucagon receptor (GCGR), sequence (P47871 26-477): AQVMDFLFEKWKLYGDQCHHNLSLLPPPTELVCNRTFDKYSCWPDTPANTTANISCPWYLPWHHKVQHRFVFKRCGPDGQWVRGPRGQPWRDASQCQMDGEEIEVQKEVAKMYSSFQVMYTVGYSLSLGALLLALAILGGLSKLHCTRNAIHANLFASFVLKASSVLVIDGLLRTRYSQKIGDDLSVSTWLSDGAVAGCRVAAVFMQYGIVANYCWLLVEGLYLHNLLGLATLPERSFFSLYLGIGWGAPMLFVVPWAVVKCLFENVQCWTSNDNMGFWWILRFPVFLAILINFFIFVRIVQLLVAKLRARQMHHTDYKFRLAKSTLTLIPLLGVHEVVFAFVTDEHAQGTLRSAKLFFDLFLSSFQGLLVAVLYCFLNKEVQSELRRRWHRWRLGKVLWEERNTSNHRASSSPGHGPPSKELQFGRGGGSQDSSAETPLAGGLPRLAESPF

Binder | cAMP activity, GLP1 EC50 nM [1] [nM] | cAMP activity, Glcg EC50 nM [2] [nM]
HGQGTFTSDYSKYLDSXRAQDFVQWLV (K(gE-palm) at 17; C-terminal PEG4) [g430] | – | 0.8
HGQGTFTSDYSKYLDSXRAQDFVQWLV (not fully specified; K(PEG4-palm) at 17; C-terminal PEG4) [g431] | 0.006 | 0.004
HSEGTFTSDYSKYLDSKRAQDFVQWLV[PEG4′] (not fully specified (residue 17); printed as HSEGTFTSDYSKYLDSB1RAQDFVQWLVZ4) [g433] | 0.004 | 0.03
HSQGTFTSDYSKYLDSRKAQDFVQWLE[PEG4′] (not fully specified (residue 18); printed as HSQGTFTSDYSKYLDSRB1AQDFVQWLEZ4) [g455] | – | 0.001
HSQGTFTSDYSKYLDSXRAQDFVQWLV (K(PEG3-palm) at 17; C-terminal PEG4) [g434] | 0.005 | 0.02
HSQGTFTSDYSKYLDSXRAQDFVQWLV (K(gE-palm) at 17; C-terminal PEG4) [g414] | 0.2 | –
HSQGTFTSDYSKYLDSXRAQDFVQWLV (not fully specified; K(PEG4-palm) at 17; C-terminal PEG3) [g436] | 0.01 | 0.002
HSQGTFTSDYSKYLDSRRAQDFVQWLV (C-terminal PEG4) [g356] | 0.05 | –
HSQGTFTSDYSKYLDSXRAQDFVQWLV (not fully specified; K(PEG2-palm) at 17; C-terminal PEG4) [g435] | 0.01 | 0.002
HSEGTFTSDYSKYLDSK([γGlu-Palmitoyl])RAQDFVQWLV[PEG4′] [g432] | 0.07 | –
HSQGTFTSDYSKYLDSXRAQDFVQWLV (not fully specified; K(PEG4-palm) at 17; C-terminal PEG8) [g439] | 0.008 | 0.002
HSQGTFTSDYSKYK([γGlu-Palmitoyl])DSRRAQDFVQWLV[PEG4′] [g426] | – | 0.003
HSQGTFTSDYSKYLDSXRAQDFVQWLV (not fully specified; K(PEG4-palm) at 17; C-terminal PEG12) [g440] | 0.008 | 0.002
HSQGTFTSDYSKYLDSRKRAQDFVQWLV[PEG4′] (not fully specified (residue 18); printed as HSQGTFTSDYSKYLDSRB1RAQDFVQWLVZ4) [g415] | 0.007 | 0.002
HSQGTFTSDYSKYLDSXRAQDFVQWLV (not fully specified; K(PEG4-palm) at 17; C-terminal PEG6) [g438] | 0.005 | 0.002
HSQGTFTSDYSKYLDSXRAQDFVQWLV (not fully specified; K(PEG4-palm) at 17; C-terminal PEG2) [g437] | 0.006 | 0.002
HSQGTFTSDYSKYLDSRRAQDFVQWLV (C-terminal PEG2) [g355] | – | 0.03
HSQGTFTSDYSXYLDSRRAQDFVQWLV (K(gE-palm) at 12; C-terminal PEG4) [g416] | 1 | 0.6
HSQGTFTSDYSKYLDSK([γGlu-Palmitoyl])RAQDFVQWEV[PEG4′] [g458] | – | 9
HSQGTFTSDYSKYLDSRRAXDFVQWLV (K(gE-palm) at 20; C-terminal PEG4) [g456] | – | 0.07

Continued, values first:

cAMP activity, GLP1 EC50 nM [1] [nM] | cAMP activity, Glcg EC50 nM [2] [nM] | Binder
0.09 | – | HSQGTFTSDYSKYLDSK([γGlu-Palmitoyl])RARDFVAWLV[PEG4′] [g800]
0.6 | 0.08 | HGQGTFTSDYSKYLDSXRAQDFVQWLE (K(gE-palm) at 17; C-terminal PEG4) [g516]
0.09 | – | HGQGTFTSDYSRYLDSK([γGlu-Palmitoyl])RARDFVEWLV[PEG4′] [g719]
0.09 | – | H[Aib]QGTFTSDYSKYLDSK([γGlu-Palmitoyl])RAQDFVAWLV[PEG4′] [g870]
0.5 | 0.03 | HSQGTFTSDYSKYLDEK([γGlu-Palmitoyl])RAQDFVQWLV[PEG4′] [g810]
– | 40 | HSQGTFTSDYSEYLDSK([γGlu-Palmitoyl])RAQDFVQWLV[PEG4′] [g676]
– | 0.002 | HSQGTFTSDYSKYLDSXRAQDFVQWLV (not fully specified; K(PEG4-gE-palm) at 17; C-terminal PEG4) [g964]
0.06 | – | HGQGTFTSDYSKYLDSXRAQDFVQWLV (K(gE-palm) at 17; C-terminal PEG6) [g692]
– | 0.01 | HSQGTFTSDYSKYK([γGlu-Palmitoyl])DEERAQDFVQWLV[PEG4′] [g807]
0.3 | – | HGQGTFTSDYSEYLDSK([γGlu-Palmitoyl])RARDFVEWLV[PEG4′] [g677]
– | 0.007 | HSQGTFTSDK([PEG4′-Palmitoyl])SKYLDSSRARDFVAWLV[PEG4′] [g971]
0.08 | – | HXQGTFTSDYSKYLDSXRAQDFVQWLV (alpha-amino-iso-butyric acid (Aib) at 2; K(gE-palm) at 17; C-terminal PEG4) [g500]
– | 0.006 | H[Aib]QGTFTSDYSKYLDSK([PEG4′-γGlu-Palmitoyl])RARDFVAWLV[PEG4′] [g968]
0.03 | 0.003 | HXQGTFTSDYSKYLDSXRAQDFVQWLV (alpha-amino-iso-butyric acid (Aib) at 2; K(PEG4-palm) at 17; C-terminal PEG4) [g501]
50 | – | HSQGTFTSDYSKYLDSRRAQXFVQWLV (K(gE-palm) at 21; C-terminal PEG4) [g808]
– | 0.07 | HSQGTFTSDYSKYLDSRAAQK([γGlu-Palmitoyl])FVQWLV[PEG4′] [g809]
– | 0.3 | HSQGTFTSDYSKYLDSK([PEG4′-Palmitoyl])RAQDFVQWEV[PEG4′] [g459]
0.3 | – | HSQGTFTSDYSEYLDSK([γGlu-Palmitoyl])RARDFVAWLV[PEG4′] [g784]
– | 0.006 | HSQGTFTSDYSKYLDSK([PEG4′-γGlu-Palmitoyl])RARDFVAWLE[PEG2′] [g967]
0.09 | 0.003 | HSQGTFTSDYSKYLDSKRAQDFVQWLEA (K(gE-palm) at 17 (printed as B); C-terminal PEG2) [g533]
– | 0.003 | HSQGTFTSDYSKK([PEG4′-Palmitoyl])LDSSRARDFVAWLV[PEG4′] [g970]
– | 0.3 | HSQGTFTSDYSKYLDK([PEG4′-Palmitoyl])RRAQDFVQWEV[PEG4′] [g497]
0.06 | 0.1 | HGQGTFTSDYSKYLDSXRAQDFVQWLV (K(gE-palm) at 17; C-terminal PEG3) [g690]
0.02 | 0.03 | HGQGTFTSDYSKYLESK([PEG4′-Palmitoyl])RAQDFVQWLV[PEG4′] [g499]
– | 0.02 | H[Aib]QGTFTSDYSKYK([γGlu-Palmitoyl])DSERARDFVAWLV[PEG4′] [g868]
8 | – | HSQGTFTSDYSKYLDK([γGlu-Palmitoyl])RRAQDFVQWEV[PEG4′] [g496]
– | 0.001 | HSQGTFTSDYSKYLDSXRAQDFVQWLE (not fully specified; K(PEG2-PEG2-gE-palm) at 17; C-terminal PEG4) [g966]
– | 0.08 | HSQGTFTSDYSEYLDSK([γGlu-Palmitoyl])RAADFVQWLV[PEG4′] (not fully specified; printed as HSQGTFTSDYSEYLDSBRAADFVQWLVZ4) [g775]
– | 0.002 | HSQGTFTSDYSKYLDSXRAQDFVQWLV (not fully specified; K(PEG2-gE-palm) at 17; C-terminal PEG4) [g965]
0.05 | – | HGQGTFTSDYSKYLDSXRAQDFVQWLV (K(gE-palm) at 17; C-terminal PEG2) [g691]
